Results taken from paper PMC4355076 (Molecular cell, 2015).
Positions count from the first letter of the chain named. Numbers in names are those of the source. Blank lines part the entries; values can stand above or below the binder they belong to.

Tests used:
[1] = biological target: the molecule itself; experiment: AUC
[2] = biological target: T1, human UCH37 isoform 1, co-expressed with NFRKB (human, UniProt Q9Y5K5 1-329); experiment: cell-based or functional assay
T1 sequence (looked up): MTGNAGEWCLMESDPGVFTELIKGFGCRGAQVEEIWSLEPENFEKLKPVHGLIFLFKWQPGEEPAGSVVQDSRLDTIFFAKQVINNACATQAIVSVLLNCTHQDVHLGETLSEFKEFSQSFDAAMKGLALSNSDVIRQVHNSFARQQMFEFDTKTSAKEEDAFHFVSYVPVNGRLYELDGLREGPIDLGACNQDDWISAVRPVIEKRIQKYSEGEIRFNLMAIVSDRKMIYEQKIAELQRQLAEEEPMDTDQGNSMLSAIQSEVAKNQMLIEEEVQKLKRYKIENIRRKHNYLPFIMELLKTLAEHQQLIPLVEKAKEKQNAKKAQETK

[3] = biological target: T2, human UCH37 (isoform 1), full-length (human, UniProt Q9Y5K5 1-329); experiment: cell-based or functional assay
T2 sequence (looked up): T1 sequence (looked up)

[4] = biological target: T3, UCH37(M148A,F149A) (human, UniProt Q9Y5K5 1-329, M148A | F149A); experiment: cell-based or functional assay
T3 sequence (looked up): T1 sequence (looked up) with M148A, F149A

[5] = biological target: T4, human UCH37 isoform 2 (human, UniProt Q9Y5K5 1-329, deleting the codon for E246); experiment: cell-based or functional assay
T4 sequence (looked up): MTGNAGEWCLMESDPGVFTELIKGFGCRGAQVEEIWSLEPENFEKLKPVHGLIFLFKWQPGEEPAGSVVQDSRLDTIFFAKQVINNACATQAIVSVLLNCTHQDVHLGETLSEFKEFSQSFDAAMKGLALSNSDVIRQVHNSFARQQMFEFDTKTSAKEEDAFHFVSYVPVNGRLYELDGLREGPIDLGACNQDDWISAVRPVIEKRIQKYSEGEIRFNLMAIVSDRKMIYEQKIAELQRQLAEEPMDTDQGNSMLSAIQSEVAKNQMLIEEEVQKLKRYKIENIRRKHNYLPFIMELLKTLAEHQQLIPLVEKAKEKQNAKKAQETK

[6] = biological target: human ubiquitin (human, UniProt P0CG48 1-76); experiment: cell-based or functional assay

B1: UCH37(M269E,N291D) (enzyme, human, UniProt Q9Y5K5 1-329, looked up)
chain: T1 sequence (looked up) with M269E, N291D
Kd [1]: 49 µM

B2: NFRKB^1-156 (domain or fragment, human, UniProt Q6P4R8 1-156, looked up)
chain: MDSLDHMLTDPLELGPCGDGHGTRIMEDCLLGGTRVSLPEDLLEDPEIFFDVVSLSTWQEVLSDSQREHLQQFLPQFPEDSAEQQNELILALFSGENFRFGNPLHIAQKLFRDGHFNPEVVKYRQLCFKSQYKRYLNSQQQYFHRLLKQILASRSD
kcat of ubiquitin-AMC hydrolysis by the UCH37/NFRKB^1-156 complex [2]: 0.1 s⁻¹ | kcat/Km of ubiquitin-AMC hydrolysis by the UCH37/NFRKB^1-156 complex [2]: 0.006 s^−1μM^−1

B5: NFRKB^1-117 (domain or fragment, human, UniProt Q6P4R8 1-117, looked up)
chain: MDSLDHMLTDPLELGPCGDGHGTRIMEDCLLGGTRVSLPEDLLEDPEIFFDVVSLSTWQEVLSDSQREHLQQFLPQFPEDSAEQQNELILALFSGENFRFGNPLHIAQKLFRDGHFN
kcat of ubiquitin-AMC hydrolysis by the UCH37/NFRKB^1-117 complex [2]: 0.15 s⁻¹ | kcat/Km of ubiquitin-AMC hydrolysis by the UCH37/NFRKB^1-117 complex [2]: 0.005 s^−1μM^−1

B6: human RPN13^285-407 (domain or fragment)
chain: GSWTQVDLASVLTPEIMAPILANADVQERLLPYLPSGESLPQTADEIQNTLTSPQFQQALGMFSAALASGQLGPLMCQFGLPAEAVEAANKGDVEAFAKAMQNNAKPEQKEGDTKDKKDEEEDMSLD
kcat of ubiquitin-AMC hydrolysis by the UCH37/RPN13^285-407 complex [3]: 5 s⁻¹ | kcat/Km of ubiquitin-AMC hydrolysis by the UCH37/RPN13^285-407 complex [3]: 1.6 s^−1μM^−1 | kcat of ubiquitin-AMC hydrolysis by the UCH37(M148A,F149A)/RPN13^285-407 complex [4]: 4.7 s⁻¹ | kcat of ubiquitin-AMC hydrolysis by the UCH37(isoform2)/RPN13^285-407 complex [5]: 4.7 s⁻¹ | kcat/Km of ubiquitin-AMC hydrolysis by the UCH37(isoform2)/RPN13^285-407 complex [5]: 1.4 s^−1μM^−1

The remaining lines, values ahead:

kcat of ubiquitin-AMC hydrolysis by the UCH37/NFRKB^1-156(^97GSGS^100) complex [2]: 5.94 s⁻¹
B3: NFRKB^1-156(^97GSGS^100) (domain or fragment, human, UniProt Q6P4R8 1-156, looked up)
chain: B2 chain with N97G, F98S, R99G, F100S

kcat of ubiquitin-AMC hydrolysis by the UCH37/NFRKB^39-156 complex [2]: 0.25 s⁻¹ | kcat/Km of ubiquitin-AMC hydrolysis by the UCH37/NFRKB^39-156 complex [2]: 0.009 s^−1μM^−1
B4: NFRKB^39-156 (domain or fragment, human, UniProt Q6P4R8 39-156, looked up)
chain: PEDLLEDPEIFFDVVSLSTWQEVLSDSQREHLQQFLPQFPEDSAEQQNELILALFSGENFRFGNPLHIAQKLFRDGHFNPEVVKYRQLCFKSQYKRYLNSQQQYFHRLLKQILASRSD

kcat of ubiquitin-AMC hydrolysis by the UCH37/RPN13(Q337A,Q338A)^285-407 complex [6]: 4.7 s⁻¹
B7: RPN13(Q337A,Q338A)^285-407 (domain or fragment, human)
chain: B6 chain with Q57A, Q58A
